# Where a chain is given by its changes, count along the chain named. Names may count otherwise. Ends that are not written are not given here.
# B1: triple mutant NS346A-E348A-T349A neuropilin-1 b1b2 domain (NRP-1 mutant) (receptor, UniProt O14786 273-586, looked up)
# chain: FKCMEALGMESGEIHSDQITASSQYSTNWSAERSRLNYPENGWTPGEDSYREWIQVDLGLLRFVTAVGTQGAIAKAAKKKYYVKTYKIDVSSNGEDWITIKEGNKPVLFQGNTNPTDVVVAVFPKPLITRFVRIKPATWETGISMRFEVYGCKITDYPCSGMLGMVSGLISDSQITSSNQGDRNWMPENIRLVTSRSGWALPPAPHSYINEWLQIDLGEEKIVRGIIIQGGKHRENKVFMRKFKIGYSNNGSDWKMIMDDSKRKAKSFEGNNNYDTPELRTFPALSTRFIRIYPERATHGGLGLRMELLGCEVE
# modifications: FAM (5-(and-6)-carboxyfluorescein) label, amine-reactive dye
# notes: domain: b1b2 domain; Printed as 'NS346A-E348A-T349A'; also called mutant NRP-1; not shown: His-tag
# Key:
# [1] = biological target: T1, 6xHistag-DCN-tCRK fusion protein (human, UniProt P07585 31-359, glycosaminoglycan chain (mostly chondroitin sulfate) attached to the DCN core, residue not stated; FAM-labelled in the cell assay only); assay: ELISA: immobilised DCN-tCRK (100 µg/ml coating), FAM-labelled NRP-1 mutant, fluorescence intensity, compared with BSA control
# T1 construct: Produced in HEK293F cells; Immobilised unlabelled on the plate in the ELISA; also called tCRK-DCN; FAM-DCN-tCRK
# T1 sequence (P07585 other isoform, or with tags, fused parts or gaps): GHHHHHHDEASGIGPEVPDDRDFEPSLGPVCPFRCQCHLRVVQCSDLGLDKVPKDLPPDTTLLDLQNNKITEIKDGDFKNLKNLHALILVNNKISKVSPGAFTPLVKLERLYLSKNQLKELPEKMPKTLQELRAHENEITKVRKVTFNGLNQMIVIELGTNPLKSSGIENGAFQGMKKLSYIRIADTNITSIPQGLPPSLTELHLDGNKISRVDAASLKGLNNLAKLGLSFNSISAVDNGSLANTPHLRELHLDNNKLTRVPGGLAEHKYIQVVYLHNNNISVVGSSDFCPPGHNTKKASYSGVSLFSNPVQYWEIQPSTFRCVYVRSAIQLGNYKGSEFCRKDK
# Experimental: (§1) In vitro binding of DCN-tCRK and peptides to NRP-1 was analyzed using ELISA analysis. 96-well, black FLUOTRAC™ 600, high binding plates (Greiner Bio-One, Kremsmünster, Austria) were coated with […] of 100 μg/ml DCN-tCRK in PBS at 4° C. overnight. 10 μg/well RPARPAR (SEQ ID NO: 25) and […] (SEQ ID NO: 26) peptides were coated in parallel as a positive and negative control, respectively. BSA was used as an immobilization control. The plates were washed 3 times with phosphate buffered saline (PBS) and blocked for 1 h at 37° C. with 300 μl of blocking solution (1×PBS, 1% BSA, 0.1% Tween-20). His-tagged neuropilin-1 b1b2 domain (NRP-1 WT) and triple mutant NS346A-E348A-T349A neuropilin-1 b1b2 domain (NRP-1 mutant) were expressed and purified at the Protein Production and Analysis Facility at the Sanford Burnham Prebys Medical Discovery Institute (La Jolla, Calif.) as described previously (Teesalu et al., 2009, PNAS 106:16157-16162). The recombinant proteins NRP1 WT, NRP1 mutant, and DCN-tCRK were FAM (5-(and-6)-Carboxyfluorescein, #90024, Biotium Inc, CA, USA) labeled by mixing 1:10 ratio of amine-reactive FAM dye (diluted in DMSO final concentration 0.2%) and protein. […] After adding 100 μl PBS in each well, the plate was immediately read with top read mode using a fluorescence reader (Flex Station II, Molecular Devices; peak excitation=485 nm, peak emission=530 nm, cut off=515).
# [2] = biological target: T2, His-tagged neuropilin-1 b1b2 domain (NRP-1 WT) (UniProt O14786 273-586, limits assumed, FAM (5-(and-6)-carboxyfluorescein) label, amine-reactive dye); assay: ELISA: immobilised peptide (10 µg/well), FAM-labelled NRP-1, fluorescence intensity
# T2 construct: domain: b1b2 domain; also called WT NRP-1; wild type NRP-1; not shown: His-tag
# T2 sequence (looked up): B1 chain with A74S, A76E, A77T
# Experimental: as §1
Binder,binding result [1],binding result [2]
B1,no binding (tested: 20 µg/well FAM-labelled NRP1 mutant),
"RPARPARA (not fully specified, also called negative peptide) [RPARPARA peptide]",,no binding (tested: 20 µg/well FAM-labelled NRP1 WT)

# From patent US20230167162A1 (TAMPERE UNIVERSITY FOUNDATION SR, published 2023)
